One molecule from patent publication US7709002 (US Dept. of Health and Human Services, dated 2010) can be followed below.

Experiment [1] has as its target HLA-A2 (human). Nature of the experiment: T2 bioassay (peptide 50 µg/ml + b2m 3 µg/ml, overnight), flow cytometry, stained with anti-HLA-A2 MAb. (In flow cytometry, cells or beads pass a laser one at a time.)
Experiment [2] deals with HLA-A2 (human). Nature of the experiment: T2 bioassay (peptide 50 µg/ml + b2m 3 µg/ml, overnight), flow cytometry, stained with pan class I MAb W6/32.

B1: wild-type ras5-14(Gly12) peptide (peptide)
peptide: KLVVVGAGGV
notes: also called ras5-14(G12); normal ras 10-mer
For the molecule B1, the MFI in experiment [1] worked out at 285; in experiment [2] it was 523.
